This passage reports Kd results from publication PMC8839947, “Highly Sensitive RNA-Based Electrochemical Aptasensor for the Determination of C-Reactive Protein Using Carbon Nanofiber-Chitosan Modified Screen-Printed Electrode”.

The series deals with T1, C-reactive protein (CRP) (UniProt P02741 19-224).
T1 sequence: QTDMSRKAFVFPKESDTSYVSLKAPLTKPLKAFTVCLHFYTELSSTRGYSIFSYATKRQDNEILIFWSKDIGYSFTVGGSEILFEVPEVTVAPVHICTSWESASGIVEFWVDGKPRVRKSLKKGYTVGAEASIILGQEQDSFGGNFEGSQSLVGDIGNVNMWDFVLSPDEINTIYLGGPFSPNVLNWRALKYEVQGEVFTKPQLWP
The series is described as follows: square-wave voltammetry (Langmuir isotherm, MB signal-off electrode); 2 mM CaCl2; 60 min incubation; KL 1.07 pM-1; CRP incubation in 0.1 M Tris pH 7.4, 2 mM CaCl2, 60 min; SWV read-out in PBS (0.1 M, pH 7.4); BSA-blocked electrode; incubation temperature not stated (298 K used in calculations). As to conditions: protein: commercial; chain copies: 5; label: methylene blue self-assembled (non-covalent); immobilized via glutaraldehyde on CNFs-chitosan carbon screen-printed electrode.

One may read the Kd as the free concentration of one partner at which half of the binding sites on the other are occupied at equilibrium, for simple one-to-one binding.

Turning to GCCUGUAAGGUGGUCGGUGUGGCGAGUGUGUUAGGAGAGAUUGC (structured_RNA, 5'-NH2-(CH2)6) [CRP RNA aptamer (5'-amino)], the equilibrium dissociation constant (Kd) is 0.93 pM.
